According to patent US20220243360A1 (ROCHE SEQUENCING SOLUTIONS, published 2022):
No end group written: not given here.

How the values were obtained:
biotin-labeled DsbA [1] = biological target: T1, biotin-labeled DsbA (UniProt P0AEG4 20-208, limits assumed, biotin-labeled); assay: peptide microarray fluorescence (Cy5), peptide on the array, biotin-DsbA in solution
T1 sequence (looked up): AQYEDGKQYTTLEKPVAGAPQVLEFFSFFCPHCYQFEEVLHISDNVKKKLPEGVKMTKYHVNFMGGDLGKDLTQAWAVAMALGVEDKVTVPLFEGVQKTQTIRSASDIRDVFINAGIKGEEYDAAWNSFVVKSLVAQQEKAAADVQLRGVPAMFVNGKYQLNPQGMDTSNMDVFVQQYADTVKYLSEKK

biotin-labeled DsbA [2] = biological target: T1, biotin-labeled DsbA; assay: Biacore X100 per the table title, biotin-DsbA on streptavidin chip; paragraph 121 says Biacore or ITC (Duprez 2015)
biotin-labeled DsbA [3] = biological target: T1, biotin-labeled DsbA; assay: SPR, Biacore X100, biotin-DsbA on streptavidin chip, peptide as analyte
Protocol: Kinetic analysis of the interaction between the discovered peptides and DsbA was performed using a Biacore XI00. Biotin-labeled DsbA (1 uM) was immobilized on streptavidin coated chip (GE Healthcare) to a target level of 1,000 response units in HBS-P+. […] Fourteen dilutions of peptide from 5000 nM to 0.6 nM in HBS-P+were flowed over the DsbA coated chip in triplicate with a contact time of 120 seconds and a dissociation time of 600 seconds. […] All peptides were amidated on the C-terminus.

With PSPWATCDF-NH2 [PSPWATCDF-NH2] the “SIGNAL INTENSITY” value (biotin-labeled DsbA [1]) was 82 and the Kd (biotin-labeled DsbA [2]) was 2900 nM.

DFWHGETCKVTQFDQ-NH2 [DFWHGETCKVTQFDQ-NH2] was tested, and the Kd (biotin-labeled DsbA [3]) was 84 nM and the “SIGNAL INTENSITY” value (biotin-labeled DsbA [1]) was 1800.

In the case of DFWHGEQCKVTQFDQ-NH2 [DFWHGEQCKVTQFDQ-NH2], the Kd (biotin-labeled DsbA [3]) is reported as 53 nM and the “SIGNAL INTENSITY” value (biotin-labeled DsbA [1]) is reported as 4590.

With DFWHGDTCKVTQFDQ-NH2 [DsbA_1_WT] the Kd (biotin-labeled DsbA [3]) was 208 nM and the “SIGNAL INTENSITY” value (biotin-labeled DsbA [1]) was 1750.

NDYQYKGQQCLDPKY-NH2 [NDYQYKGQQCLDPKY-NH2] was tested, and the Kd (biotin-labeled DsbA [3]) was 48 nM and the “SIGNAL INTENSITY” value (biotin-labeled DsbA [1]) was 3620.

In the case of HNWAAQCLNPDQAKL-NH2 [HNWAAQCLNPDQAKL-NH2], the Kd (biotin-labeled DsbA [3]) is reported as 57 nM and the “SIGNAL INTENSITY” value (biotin-labeled DsbA [1]) is reported as 2640.

For HNWAAQCLKDQAKL-NH2 [HNWAAQCLKDQAKL-NH2], the Kd (biotin-labeled DsbA [3]) was 88 nM and the “SIGNAL INTENSITY” value (biotin-labeled DsbA [1]) was 1760.

For SIIGQCYKKDPSQAT-NH2 [SIIGQCYKKDPSQAT-NH2], the Kd (biotin-labeled DsbA [3]) was 553 nM.

SIIGMCYKKDPS-NH2 [SIIGMCYKKDPS-NH2] was tested, and the Kd (biotin-labeled DsbA [3]) was 188 nM and the “SIGNAL INTENSITY” value (biotin-labeled DsbA [1]) was 1360.

For VIGQCLKN-NH2 [VIGQCLKN-NH2], the Kd (biotin-labeled DsbA [3]) was 623 nM and the “SIGNAL INTENSITY” value (biotin-labeled DsbA [1]) was 588.

WQYENWAITKWQCVK-NH2 [WQYENWAITKWQCVK-NH2] was tested, and the Kd (biotin-labeled DsbA [3]) was 83 nM and the “SIGNAL INTENSITY” value (biotin-labeled DsbA [1]) was 1430.

In the case of VIVGQCLKK-NH2 [VIVGQCLKK-NH2], the Kd (biotin-labeled DsbA [3]) is reported as 622 nM and the “SIGNAL INTENSITY” value (biotin-labeled DsbA [1]) is reported as 282.

With VILGQCLKQ-NH2 [VILGQCLKQ-NH2] the Kd (biotin-labeled DsbA [3]) was 517 nM and the “SIGNAL INTENSITY” value (biotin-labeled DsbA [1]) was 965.

In the case of YVYGMCWKDYTDTDK-NH2 [YVYGMCWKDYTDTDK-NH2], the Kd (biotin-labeled DsbA [3]) is reported as 116 nM and the “SIGNAL INTENSITY” value (biotin-labeled DsbA [1]) is reported as 2110.

In the case of YVYGMCWKDYTTDK-NH2 [YVYGMCWKDYTTDK-NH2], the Kd (biotin-labeled DsbA [3]) is reported as 78 nM and the “SIGNAL INTENSITY” value (biotin-labeled DsbA [1]) is reported as 2300.
